Experimental findings from IntAct's records for PubMed 29039417 are described below.

B1: BBSome complex member BBS2 (Homo sapiens), Q9BXC9 (parent)
chain: MLLPVFTLKLRHKISPRMVAIGRYDGTHPCLAAATQTGKVFIHNPHTRNQHVSASRVFQSPLESDVSLLSINQAVSCLTAGVLNPELGYDALLVGTQTNLLAYDVYNNSDLFYREVADGANAIVLGTLGDISSPLAIIGGNCALQGFNHEGSDLFWTVTGDNVNSLALCDFDGDGKKELLVGSEDFDIRVFKEDEIVAEMTETEIVTSLCPMYGSRFGYALSNGTVGVYDKTSRYWRIKSKNHAMSIHAFDLNSDGVNELITGWSNGKVDARSDRTGEVIFKDNFSSAIAGVVEGDYRMDGHIQLICCSVDGEIRGYLPGTAEMRGNLMDTSAEQDLIRELSQKKQNLLLELRNYEENAKAELASPLNEADGHRGIIPANTRLHTTLSVSLGNETQTAHTELRISTSNDTIIRAVLIFAEGIFTGESHVVHPSIHNLSSSICIPIVPPKDVPVDLHLKAFVGYRSSTQFHVFESTRQLPRFSMYALTSLDPASEPISYVNFTIAERAQRVVVWLGQNFLLPEDTHIQNAPFQVCFTSLRNGGHLHIKIKLSGEITINTDDIDLAGDIIQSMASFFAIEDLQVEADFPVYFEELRKVLVKVDEYHSVHQKLSADMADHSNLIRSLLVGAEDARLMRDMKTMKSRYMELYDLNRDLLNGYKIRCNNHTELLGNLKAVNQAIQRAGRLRVGKPKNQVITACRDAIRSNNINTLFKIMRVGTASS
partner: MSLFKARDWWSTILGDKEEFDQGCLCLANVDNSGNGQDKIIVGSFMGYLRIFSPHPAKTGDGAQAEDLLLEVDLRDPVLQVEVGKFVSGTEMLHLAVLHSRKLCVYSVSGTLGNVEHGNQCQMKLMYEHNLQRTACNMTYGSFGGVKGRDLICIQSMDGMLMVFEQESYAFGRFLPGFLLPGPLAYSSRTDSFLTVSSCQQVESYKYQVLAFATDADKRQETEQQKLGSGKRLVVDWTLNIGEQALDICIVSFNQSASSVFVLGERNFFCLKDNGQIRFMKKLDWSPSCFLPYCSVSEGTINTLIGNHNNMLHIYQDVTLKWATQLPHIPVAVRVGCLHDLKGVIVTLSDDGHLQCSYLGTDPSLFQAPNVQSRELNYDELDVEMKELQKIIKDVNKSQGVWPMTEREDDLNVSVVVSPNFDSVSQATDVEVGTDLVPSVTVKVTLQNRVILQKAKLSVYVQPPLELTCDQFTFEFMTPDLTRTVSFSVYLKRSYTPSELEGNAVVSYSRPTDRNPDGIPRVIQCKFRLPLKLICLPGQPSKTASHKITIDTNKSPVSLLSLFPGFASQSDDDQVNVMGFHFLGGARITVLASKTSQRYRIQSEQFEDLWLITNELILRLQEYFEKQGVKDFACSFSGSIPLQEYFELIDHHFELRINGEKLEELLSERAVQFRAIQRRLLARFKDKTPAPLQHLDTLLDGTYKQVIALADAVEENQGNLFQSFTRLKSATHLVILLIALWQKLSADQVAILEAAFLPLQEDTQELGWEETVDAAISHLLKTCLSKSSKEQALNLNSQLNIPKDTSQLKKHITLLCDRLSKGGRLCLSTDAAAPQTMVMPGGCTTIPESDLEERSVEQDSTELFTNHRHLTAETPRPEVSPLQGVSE

The variants in this assay derive from B1. Particulars: with pthb1_human BBS9, Q3SYG4.
As for L624A, the “effect of a mutation on the interaction” value is reported as “with no effect”.

For the variant L624K, the “effect of a mutation on the interaction” value is “with no effect”.

For the variant L624E, the “effect of a mutation on the interaction” value was “with no effect”. Under H617K stands “with no effect”; under H617A, “with no effect”; under H617E, “with no effect”. With I621K, the “effect of a mutation on the interaction” value is “with no effect”.

In the case of I621E, the “effect of a mutation on the interaction” value is listed as “with no effect”. For I621A, the “effect of a mutation on the interaction” value is “with no effect”.

Consider R632K, for which the “effect of a mutation on the interaction” value is on record as “with no effect”.

For the variant R632E, the “effect of a mutation on the interaction” value is given as “with no effect”. Under R632A stands “with no effect”.

For D613E, the “effect of a mutation on the interaction” value was “with no effect”. Under D613K stands “with no effect”; under D613A, “with no effect”. Take A612K: the “effect of a mutation on the interaction” value is given as “with no effect”. A612E: the “effect of a mutation on the interaction” value is “with no effect”. As to S618A, the “effect of a mutation on the interaction” value was “with no effect”. Turning to S618E, the “effect of a mutation on the interaction” value is given as “with no effect”. Under S618K stands “with no effect”. Under V626E stands “with no effect”; under V626A, “with no effect”. Turning to V626K, the “effect of a mutation on the interaction” value was “with no effect”. For the variant A631E, the “effect of a mutation on the interaction” value is on record as “with no effect”. Under A631K stands “with no effect”. Under M614E stands “with no effect”.

On to M614K, for which the “effect of a mutation on the interaction” value was “with no effect”.

Regarding M614A, the “effect of a mutation on the interaction” value is recorded as “with no effect”. Under E629K stands “with no effect”.

Take E629A: the “effect of a mutation on the interaction” value was “with no effect”.

Consider K609A, for which the “effect of a mutation on the interaction” value is on record as “with no effect”. Under K609E stands “with no effect”; under N619K, “with no effect”; under N619A, “with no effect”.

With N619E, the “effect of a mutation on the interaction” value is given as “with no effect”. On to K641A, for which the “effect of a mutation on the interaction” value is “with no effect”. Under S611K stands “with no effect”; under S611E, “with no effect”; under S611A, “with no effect”. On to L633A, for which the “effect of a mutation on the interaction” value was “with no effect”. Under L633E stands “with no effect”. In the case of L633K, the “effect of a mutation on the interaction” value was “with no effect”. With G627A, the “effect of a mutation on the interaction” value is listed as “with no effect”.

For the variant G627K, the “effect of a mutation on the interaction” value was “with no effect”. With G627E, the “effect of a mutation on the interaction” value was “with no effect”. Under R635A stands “with no effect”; under R635E, “with no effect”.

In the case of R635K, the “effect of a mutation on the interaction” value is “with no effect”.

As for L610K, the “effect of a mutation on the interaction” value is reported as “with no effect”. For L610A, the “effect of a mutation on the interaction” value is “with no effect”. Under L610E stands “with no effect”. Under D616K stands “with no effect”; under D616E, “with no effect”; under D616A, “with no effect”.

Regarding L620A, the “effect of a mutation on the interaction” value was “with no effect”.

Turning to L620E, the “effect of a mutation on the interaction” value is given as “with no effect”. Under L620K stands “with no effect”; under M640A, “with no effect”.

As for M640K, the “effect of a mutation on the interaction” value is given as “with no effect”.

As to M640E, the “effect of a mutation on the interaction” value is “with no effect”. As to L625K, the “effect of a mutation on the interaction” value is on record as “with no effect”. Under L625A stands “with no effect”. As to L625E, the “effect of a mutation on the interaction” value was “with no effect”. Under R622K stands “with no effect”; under R622E, “with no effect”; under R622A, “with no effect”.

In the case of M637A, the “effect of a mutation on the interaction” value was “with no effect”. Under M637E stands “with no effect”; under M637K, “with no effect”; under S623K, “with no effect”. Under S623A stands “with no effect”; under S623E, “with no effect”. For D630E, the “effect of a mutation on the interaction” value was “with no effect”. Under D630K stands “with no effect”; under D630A, “with no effect”. Under D636A stands “with no effect”; under D636G, “disrupting interaction strength”; under D636E, “with no effect”. Take D636K: the “effect of a mutation on the interaction” value is reported as “with no effect”.

Q608K: the “effect of a mutation on the interaction” value is listed as “with no effect”. Under Q608E stands “with no effect”; under Q608A, “with no effect”.

With K638E, the “effect of a mutation on the interaction” value is “with no effect”.

Consider K638A, for which the “effect of a mutation on the interaction” value is given as “with no effect”.

On to T639A, for which the “effect of a mutation on the interaction” value is “with no effect”.

In the case of T639E, the “effect of a mutation on the interaction” value is “with no effect”. For T639K, the “effect of a mutation on the interaction” value is reported as “with no effect”. Turning to A615E, the “effect of a mutation on the interaction” value is reported as “with no effect”.

As for A615K, the “effect of a mutation on the interaction” value was “with no effect”. Under M634A stands “with no effect”; under M634E, “with no effect”; under M634K, “with no effect”. Consider A628K, for which the “effect of a mutation on the interaction” value is “with no effect”. Regarding A628E, the “effect of a mutation on the interaction” value was “with no effect”.
